Reference: patent US20260248969A1, “PEPTIDE MULTIMER PRODUCTS AND METHODS” (REGENTS OF THE UNIVERSITY OF MICHIGAN, priority 2023, published 2026)
Entries after “also recorded” stand apart in the source; their conditions may differ. Each block holds one substance with its values, some of them ahead of it. No end group written: not given here.

What was measured:
human CCA-156 HCC cells = assay: Binding of Cy5.5-labeled peptides to CCA-156 HCC cells, confocal fluorescence; type: cell-based; settings: 5 μM, 5 min on ice
Procedure: HCC patient-derived cells (CCA-156) were generated from fresh, de novo tumor specimens obtained from patients undergoing liver transplant.
Fresh tissue was cut into ~1 mm^2 pieces in ice-cold DPBS. and 3-4 pieces were placed in one well of a 12-well plate. Minced tissue was cultured using Matrigel with growth media containing 10 μM ROCK inhibitor Y27632 (ATCC) and 5 μM TGF-β inhibitor (A83-01, Sigma-Aldrich) diluted to 8 mg/mL. An HCC cell line and a corresponding organoid were successfully generated. The cell line was denoted CCA-156 to reflect the specimen ID.
Approximately 10^3 CCA-156 cells were grown on the cover glass in a 24-well plate to ~90% confluence. The cells were washed with PBS twice and incubated with 5 μM of either Cy5.5-labeled peptide multimer or peptide monomer for 5 min on ice. The cells were then washed with PBS for 3X, fixed with 4% paraformaldehyde (PFA) in PBS for 15 min, washed with PBS for twice, then mounted on glass slides with ProLong Gold reagent containing DAPI (Invitrogen).

GPC3 [1] = molecular target: T1, GPC3 (Homo sapiens, UniProt P51654); assay: Co-localization of labeled multimer and anti-GPC3 antibody binding to HCC patient-derived organoids (PDOs); settings: merged images
T1 construct: from tissue; host or cells: human HCC patient-derived xenograft tumor grown orthotopically in NSG mouse liver
T1 sequence (P51654 25-554): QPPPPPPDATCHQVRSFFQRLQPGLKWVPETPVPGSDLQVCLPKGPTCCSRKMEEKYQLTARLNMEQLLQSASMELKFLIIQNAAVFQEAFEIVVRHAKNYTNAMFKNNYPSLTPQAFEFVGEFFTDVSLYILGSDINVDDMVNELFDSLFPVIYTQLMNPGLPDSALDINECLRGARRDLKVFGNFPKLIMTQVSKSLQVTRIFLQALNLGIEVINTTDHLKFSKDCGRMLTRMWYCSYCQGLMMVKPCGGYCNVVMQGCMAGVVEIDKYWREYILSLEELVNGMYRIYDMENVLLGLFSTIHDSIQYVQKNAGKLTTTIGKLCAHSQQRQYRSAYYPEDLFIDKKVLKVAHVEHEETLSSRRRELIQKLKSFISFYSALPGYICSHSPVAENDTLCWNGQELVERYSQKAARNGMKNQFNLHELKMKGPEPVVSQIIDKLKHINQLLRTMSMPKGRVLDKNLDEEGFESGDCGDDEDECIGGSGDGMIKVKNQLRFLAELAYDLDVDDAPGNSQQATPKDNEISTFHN
Procedure: (§1) PDOs were established from human HCC specimens. These immortalized human tissues provided clinically relevant target expression levels and genetic heterogeneity seen in the HCC patient population. Short tandem repeat analysis was performed to authenticate human genomic expression and characterize genetic variations. Images collected using the candidate IRDye800-labeled multimer, AF488-labeled monoclonal antibodies specific for GPC3, CD44, and EpCAM, and merged are shown, FIG. 2A-C. Strong fluorescence intensity can be seen at the cell surface (arrows). Multimer and antibody co-localization was measured using correlation analysis.
(§2) For a co-localization assay, patient-derived organoids were recovered from Matrigel and fixed by 4% PFA for 30 min. Permeabilization and blocking were performed using 5% serum (v/v) and 1% Triton X-100 (v/v) in PBS for 3 hours at room temperature. Organoids were then incubated with 1:200 dilution of primary recombinant rabbit anti-GPC3 antibody (#ab95363, Abcam), 1:500 dilution of primary recombinant mouse anti-CD44 antibody (#3570, Cell Signaling Technology), and AF594-labeled primary anti-EpCAM (#7319, Cell Signaling Technology) at 4° C. overnight. […] Confocal fluorescence images were obtained on Leica Stellaris 5 (inverted) confocal microscope using a 63X oil-immersion objective. Fluorescence intensities were quantified using Leica LAS AF Lite software.

CD44 [2] = assay: Co-localization of labeled multimer and anti-CD44 antibody binding to HCC patient-derived organoids (PDOs); design: species or system human; settings: merged images
Procedure: as §1, §2

EpCAM [3] = molecular target: T2, EpCAM (Homo sapiens, UniProt P16422); assay: Co-localization of labeled multimer and anti-EpCAM antibody binding to HCC patient-derived organoids (PDOs); settings: merged images
T2 construct: from tissue; host or cells: human HCC patient-derived xenograft tumor grown orthotopically in NSG mouse liver
T2 sequence (P16422 24-314): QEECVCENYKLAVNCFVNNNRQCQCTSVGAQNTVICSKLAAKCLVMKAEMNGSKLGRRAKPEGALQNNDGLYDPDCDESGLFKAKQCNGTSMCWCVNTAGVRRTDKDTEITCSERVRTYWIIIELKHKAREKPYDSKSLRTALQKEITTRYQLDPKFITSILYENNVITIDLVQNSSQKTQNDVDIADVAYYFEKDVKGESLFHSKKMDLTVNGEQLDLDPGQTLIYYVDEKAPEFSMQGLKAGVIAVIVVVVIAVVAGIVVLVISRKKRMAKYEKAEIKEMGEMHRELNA
Procedure: as §1, §2

GPC3 [4] = molecular target: T1, GPC3; assay: Co-localization of labeled multimer and anti-GPC3 antibody on resected human HCC PDX tumor specimen; type: binding; settings: merged image
From the text: (§3) After completion of in vivo imaging, specific multimer binding to the PDX HCC tumor was validated ex vivo using confocal microscopy. These studies confirmed the in vivo imaging results and expression of the expected targets ex vivo. Increased fluorescence intensity is seen at the cell surface (arrow) for the IRDye800-labeled multimer binding to HCC tumor, FIG. 8A. Adjacent sections were stained with antibodies specific for GPC3, CD44, and EpCAM, FIG. 8B-D. Co-localization of multimer and antibody binding is shown on the merged image, FIG. 8E. A correlation of ρ=0.69, 0.65, and 0.70 was measured to characterize binding co-localization by the multimer with the GPC3, CD44, and EpCAM antibodies, respectively.
(§4) Orthotopic HCC PDX tumors were resected and sectioned for immunofluorescence.

CD44 [5] = molecular target: T3, CD44 (Homo sapiens, UniProt P16070); assay: Co-localization of labeled multimer and anti-CD44 antibody on resected human HCC PDX tumor specimen; type: binding; settings: merged image
T3 construct: from tissue; host or cells: human HCC patient-derived xenograft tumor grown orthotopically in NSG mouse liver
T3 sequence (P16070 21-742): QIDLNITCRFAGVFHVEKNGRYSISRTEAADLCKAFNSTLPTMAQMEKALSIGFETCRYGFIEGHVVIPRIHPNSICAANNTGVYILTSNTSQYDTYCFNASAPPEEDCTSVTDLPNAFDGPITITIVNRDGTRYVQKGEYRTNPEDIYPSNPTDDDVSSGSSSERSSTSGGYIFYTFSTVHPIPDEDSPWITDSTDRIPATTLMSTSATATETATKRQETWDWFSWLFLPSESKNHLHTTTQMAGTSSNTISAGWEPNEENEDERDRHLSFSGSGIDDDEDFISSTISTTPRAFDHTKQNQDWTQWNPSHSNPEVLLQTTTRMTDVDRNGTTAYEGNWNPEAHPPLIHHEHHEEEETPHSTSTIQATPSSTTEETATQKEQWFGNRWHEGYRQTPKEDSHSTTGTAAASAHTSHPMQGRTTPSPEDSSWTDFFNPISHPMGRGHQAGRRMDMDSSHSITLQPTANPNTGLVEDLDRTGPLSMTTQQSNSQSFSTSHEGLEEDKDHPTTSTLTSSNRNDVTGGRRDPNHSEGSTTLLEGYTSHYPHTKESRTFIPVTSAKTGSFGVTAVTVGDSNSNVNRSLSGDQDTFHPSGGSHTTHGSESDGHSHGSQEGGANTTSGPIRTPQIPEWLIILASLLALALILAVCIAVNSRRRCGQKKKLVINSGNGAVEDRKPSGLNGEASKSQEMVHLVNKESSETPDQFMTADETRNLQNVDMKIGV
From the text: as §3, §4

EpCAM [6] = molecular target: T2, EpCAM; assay: Co-localization of labeled multimer and anti-EpCAM antibody on resected human HCC PDX tumor specimen; type: binding; settings: merged image
From the text: as §3, §4

[7] = test system: orthotopic HCC PDX tumors; assay: In vivo competition for binding (blocking before Gd-DOTA-labeled peptide multimer), MR imaging; design: species or system mouse; settings: unlabeled blocker given prior to labeled multimer; 0.5 hour post-injection
Procedure: In vivo competition for binding to GPC3, CD44, and EpCAM was evaluated by administering unlabeled peptide monomers prior to Gd-DOTA labeled peptide multimer. Single unlabeled peptide monomers (ALL*, WKG*, and HPD*) at a concentration of 1.5 mM in 100 μL of PBS, or a mixture of all three peptide monomers (multi-block) at a concentration of 1 mM in 100 μL of PBS each were administered 30 minutes prior to the Gd-DOTA-labeled peptide multimer, FIG. 14A. T1-weighted MR images were collected at the peak uptake time of 0.5 hour after the peptide multimer injection. The T/B ratio of MR intensity was calculated using regions of interest, and the adjacent non-tumor region with equal area of the tumor region was defined as the background.

GPC3 [8] = molecular target: T1, GPC3; assay: Co-localization of multimer and anti-GPC3-AF532 on human liver tissue microarray; type: binding
Procedure: (§5) Binding of Cy5.5-labeled peptide multimer was evaluated using human HCC specimens ex vivo. All experiments using human tissues were approved by the Michigan Medicine IRB (HUM00122873). A tissue microarray (TMA) was generated from n=120 liver specimens provided by the archived tissue bank in the Department of Pathology. Paraffin-embedded (FFPE) section slide was deparaffinized and conducted through antigen retrieval. Blocking procedure was performed with 5% goat serum for 1 hour at room temperature. The slide was first stained with the Cy5.5 labeled peptide multimer at 5 μM for 5 min at room temperature. The section was then incubated with primary antibodies using 1:200 dilution of primary recombinant rabbit anti-GPC3 antibody (#ab95363, Abcam), 1:500 dilution of primary recombinant mouse anti-CD44 antibody (#3570, Cell Signaling Technology), and AF594-labeled primary anti-EpCAM (#7319, Cell Signaling Technology) overnight at 4° C. After washing with 2% BSA in PBST, section was incubated with 1:500 dilution of AF488-labeled secondary goat anti-mouse IgG antibody (#ab150113, Abcam) and 1:500 dilution of AF532-labeled secondary goat anti-rabbit IgG antibody (#A-11029, Life Technologies) for 1 hour at room temperature, and mounted with Prolong Gold reagent containing DAPI at last (Invitrogen). The fluorescence images were collected using Leica Stellaris 5 (inverted), excitation at Aex=670 nm for the peptide multimer, and λex=488, 532, 594 nm for CD44, GPC3 and EpCAM antibody, respectively. Fluorescence intensities were quantified using Leica LAS AF Lite software. All slides were evaluated by an expert liver pathologist.

CD44 [9] = molecular target: T3, CD44; assay: Co-localization of multimer and anti-CD44-AF488 on human liver tissue microarray; type: binding
T3 sequence (P16070 21-222 limits assumed): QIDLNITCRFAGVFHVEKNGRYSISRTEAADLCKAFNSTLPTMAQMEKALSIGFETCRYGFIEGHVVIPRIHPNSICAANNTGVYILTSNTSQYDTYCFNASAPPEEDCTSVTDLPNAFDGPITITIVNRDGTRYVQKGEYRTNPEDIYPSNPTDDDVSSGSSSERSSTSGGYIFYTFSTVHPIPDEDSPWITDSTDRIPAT
Procedure: as §5

EpCAM [10] = molecular target: T2, EpCAM; assay: Co-localization of multimer and anti-EpCAM-AF594 on human liver tissue microarray; type: binding
Procedure: as §5

human liver specimens = assay: Multimer staining of human liver specimens ex vivo (tissue microarray), fluorescence intensity and ROC
Procedure: as §5

Substance: HPD*-Cy5.5: Cy5.5-labeled EpCAM-specific peptide monomer HPDMFTRTHSHN (SEQ ID NO: 7) (also: Cy5.5 label, site not given here)
binding to cell surface of CCA-156 cells (fluorescence) (human CCA-156 HCC cells): minimal signal

correlation of co-localization, multimer and GPC3 antibody (GPC3 [1]): 0.74
correlation of co-localization, multimer and CD44 antibody (CD44 [2]): 0.80
correlation of co-localization, multimer and EpCAM antibody (EpCAM [3]): 0.75
Pearson's correlation coefficient, multimer with GPC3 antibody (GPC3 [4]): 0.69
Pearson's correlation coefficient, multimer with CD44 antibody (CD44 [5]): 0.65
Pearson's correlation coefficient, multimer with EpCAM antibody (EpCAM [6]): 0.70
Substance: IRDye800-labeled multimer: GPC3-, CD44- and EpCAM-specific peptide monomers arranged via tri-lysine linker and PEG3 linkers, labeled with IRDye800 (peptide 1 ALLANHEELFQT; peptide 2 WKGWSYLWTQQA; peptide 3 HPDMFTRTHSHN; not fully specified; also: monomers arranged via tri-lysine linker and PEG3 linkers, IRDye800 label, site not given here)

Substance: HPDMFTRTHSHN (EpCAM-specific peptide) [HPD*]
T/B ratio of Gd-DOTA-labeled peptide multimer after blocking [7]: reduced

Substance: WKG*-Cy5.5: Cy5.5-labeled CD44-specific peptide monomer WKGWSYLWTQQA (SEQ ID NO: 6) (also: Cy5.5 label, site not given here)
binding to cell surface of CCA-156 cells (fluorescence) (human CCA-156 HCC cells): minimal signal

Substance: ALL*-Cy5.5: Cy5.5-labeled GPC3-specific peptide monomer ALLANHEELFQT (SEQ ID NO: 1) (also: Cy5.5 label, site not given here)
binding to cell surface of CCA-156 cells (fluorescence) (human CCA-156 HCC cells): minimal signal

correlation of co-localization, multimer and GPC3 antibody (GPC3 [1]): 0.74
correlation of co-localization, multimer and CD44 antibody (CD44 [2]): 0.80
correlation of co-localization, multimer and EpCAM antibody (EpCAM [3]): 0.75
Pearson's correlation coefficient, multimer with GPC3 antibody (GPC3 [4]): 0.69
Pearson's correlation coefficient, multimer with CD44 antibody (CD44 [5]): 0.65
Pearson's correlation coefficient, multimer with EpCAM antibody (EpCAM [6]): 0.70
Pearson's correlation coefficient, multimer and GPC3 antibody (GPC3 [8]; HCC): 0.76
Pearson's correlation coefficient, multimer and GPC3 antibody (GPC3 [8]; adenoma): 0.82
Pearson's correlation coefficient, multimer and GPC3 antibody (GPC3 [8]; cirrhosis): 0.69
Pearson's correlation coefficient, multimer and GPC3 antibody (GPC3 [8]; normal liver): 0.74
Pearson's correlation coefficient, multimer and CD44 antibody (CD44 [9]; HCC): 0.70
Pearson's correlation coefficient, multimer and CD44 antibody (CD44 [9]; adenoma): 0.74
Pearson's correlation coefficient, multimer and CD44 antibody (CD44 [9]; cirrhosis): 0.60
Pearson's correlation coefficient, multimer and CD44 antibody (CD44 [9]; normal liver): 0.69
Pearson's correlation coefficient, multimer and EpCAM antibody (EpCAM [10]; HCC): 0.81
Pearson's correlation coefficient, multimer and EpCAM antibody (EpCAM [10]; adenoma): 0.83
Pearson's correlation coefficient, multimer and EpCAM antibody (EpCAM [10]; cirrhosis): 0.66
Pearson's correlation coefficient, multimer and EpCAM antibody (EpCAM [10]; normal liver): 0.83
Substance: Cy5.5-labeled peptide multimer: peptide multimer of GPC3-, CD44- and EpCAM-specific peptides labeled with Cy5.5 (peptide 1 ALLANHEELFQT; peptide 2 WKGWSYLWTQQA; peptide 3 HPDMFTRTHSHN; not fully specified; also: peptide multimer, linkage not given here, Cy5.5 label, site not given here)
binding to cell surface of CCA-156 cells (fluorescence) (human CCA-156 HCC cells): Strong fluorescence signal; also recorded: strong binding
quantified fluorescence intensity, mean±SD (human liver specimens; HCC): 8.4±1.0
quantified fluorescence intensity, mean±SD (human liver specimens; adenoma): 5.8±0.4
quantified fluorescence intensity, mean±SD (human liver specimens; cirrhosis): 6.4+0.7
fluorescence intensity for HCC versus cirrhosis, adenoma, and normal (human liver specimens; n=120 specimens): significantly greater
quantified fluorescence intensity, mean±SD (human liver specimens; normal): 6.4±0.4

Substance: WKGWSYLWTQQA (CD44-specific peptide) [WKG*]
T/B ratio of Gd-DOTA-labeled peptide multimer after blocking [7]: reduced

Substance: ALLANHEELFQT (GPC3-specific peptide) [ALL*]
T/B ratio of Gd-DOTA-labeled peptide multimer after blocking [7]: reduced
